Reference: patent publication US20140242093A1, “METHODS AND COMPOSITIONS FOR MODULATING THE INNATE IMMUNE RESPONSE AND/OR MYOGENESIS IN A MAMMALIAN SUBJECT” (FRED HUTCHINSON CANCER RESEARCH CENTER, priority 2011, published 2014)

System: control human primary myoblasts
Test: Expression microarray of primary myoblasts transduced with lentivirus carrying DUX4-fl, DUX4-s or GFP
Method: Primary human myoblasts were collected and cultured as previously described (Snider et al., 2010). Primary myoblasts were maintained at or below 70% confluency for proliferation. For differentiation, cells were allowed to reach 95-100% confluency in growth medium. Once confluency was reached, the cells were changed to differentiation medium (F10 media supplemented with 1% horse serum, 10 μg/mL insulin, and 10 μg/mL transferrin, penicillin/streptomycin) and maintained for 4 days. Human RD cells were grown in DMEM in 10% bovine calf serum (Hyclone) and penicillin/streptomycin. The primary myoblasts were transduced with lentivirus carrying DUX-fl, DUX4- or GFP (MOI=15).
Expression microarrays were performed on the transduced cells at 24 hours after transduction as follows. […] Samples were analyzed by Illumina Human Whole Genome microarrays. Probe intensities were corrected, normalized, and summarized by the Lumi package of Bioconductor (Du et al., 2008). Differentially expressed genes were identified by the LIMMA package of Bioconductor (Wettenhall and Smyth, 2004). Gene set enrichment analysis (GSEA) was performed using the Bioconductor GOstats package (Falcon and Gentleman, 2007).

B1: DUX4-s: short splice form of DUX4 (SEQ ID NO:112), keeps the double-homeobox domains, lacks the C-terminal activation domain (protein, listed as Homo sapiens)
chain: MALPTPSDSTLPAEARGRGRRRRLVWTPSQSEALRACFERNPYPGIATRERLAQAIGIPEPRVQIWFQNERSRQLRQHRRESRPWPGRRGPPEGRRKRTAVTGSQTALLLRAFEKDRFPGIAAREELARETGLPESRIQIWFQNRRARHPGQGGRAPAQV
Cultured human skeletal muscle
  MYBPHL expression fc: −0.5205
  MYF5 expression fc: 0.291
  MYH13 expression fc: −1.541
  NACC2 expression fc: 0.9823
  NFIL3 expression fc: 0.3195
  NFKB1 expression fc: 0.05546
  NFKBIZ expression fc: −0.2644
  NINJ1 expression fc: 0.2107
  NPTX2 expression fc: 0.122
  NRXN2 expression fc: −0.2444
  NT5E expression fc: 0.489
  OCEL1 expression fc: −0.0991
  P2RX6 expression fc: −0.7432
  PARP3 expression fc: 0.1606
  PCK2 expression fc: 0.4194
  PCTK3 expression fc: 0.5932
  PDK4 expression fc: 0.02699
  PDPN expression fc: −0.2902
  PFKFB4 expression fc: 0.4582
  PHF15 expression fc: 0.2557
  PHLDA3 expression fc: 0.1958
  PLA2G4C expression fc: 0.07403
  PLEKHA4 expression fc: 1.33
  PLIN2 expression fc: 0.6107
  PLXNB1 expression fc: −0.09843
  PLXNB2 expression fc: 0.2031
  PPAP2B expression fc: 0.05885
  PPP3CC expression fc: 0.2562
  PRDM1 expression fc: −0.09376
  PRKCD expression fc: 0.349
  PSMB10 expression fc: 0.7464
  PSME2 expression fc: 0.4304
  PTGES expression fc: 0.3116
  PTPRU expression fc: 0.2612
  RALGDS expression fc: 0.0686
  RBCK1 expression fc: 0.326
  RBM43 expression fc: 0.3215
  RCAN1 expression fc: 0.9917
  RELB expression fc: 0.2914
  RGS20 expression fc: 0.08652
  RHBDF2 expression fc: 0.3815
  RRAS expression fc: −0.1908
  RRBP1 expression fc: 0.09904
  RTKN expression fc: −0.2678
  RTTN expression fc: 0.009387
  RUSC1 expression fc: 0.03464
  SERPING1 expression fc: 1.214
  SESN1 expression fc: −0.1133
  SHISA5 expression fc: −0.2735
  SIX5 expression fc: −0.3614
  SLC16A3 expression fc: 0.4873
  SLC22A18 expression fc: −0.05235
  SLC25A28 expression fc: 0.7251
  SLC39A14 expression fc: 0.4801
  SPTLC3 expression fc: 0.2428
  SQSTM1 expression fc: 0.1771
  SRGN expression fc: 0.2031
  STC1 expression fc: 0.8132
  STEAP3 expression fc: −0.291
  SUSD2 expression fc: −2.022
  TAPBP expression fc: 0.474
  TCEA3 expression fc: −0.1206
  TCP11L1 expression fc: 0.7816
  TMEM45A expression fc: 0.4128
  TMEM173 expression fc: 0.3673
  TNFAIP2 expression fc: 0.05713
  TNFRSF1A expression fc: 0.2727
  TNFRSF6B expression fc: 0.00925
  TNFSF13B expression fc: 2.19
  TNS3 expression fc: −0.1648
  TRAF3IP2 expression fc: 0.7299
  TRIP6 expression fc: 0.003438
  TRNP1 expression fc: 0.007844
  TSC22D3 expression fc: 0.2002
  VASN expression fc: 0.2877
  VEZF1 expression fc: −0.6876
  XBP1 expression fc: 0.3357
  ZBTB4 expression fc: 0.002479
  ZC3H12A expression fc: 0.5426
  ZFHX3 expression fc: 0.5029
  ZFP36L2 expression fc: 0.7338
  ZFP90 expression fc: −0.1973
  ZNF337 expression fc: −0.04356
  ZNF395 expression fc: 0.2584
Vs lenti-GFP, 24 h
  Log2 Fc AMACR: 0.1 log2
  Log2 Fc ARIH1: 0.8 log2
  Log2 Fc ARS2: −0.2 log2
  Log2 Fc CBARA1: −0.2 log2
  Log2 Fc CD24: −0.4 log2
  Log2 Fc CSAG3: 0.1 log2
  Log2 Fc CSE1L: 0.1 log2
  Log2 Fc CWC15: 0.1 log2
  Log2 Fc CXADR: −0.1 log2
  Log2 Fc CXCR4: −0.1 log2
  Log2 Fc DBR1: 0.2 log2
  Log2 Fc DEFB103B: 0.1 log2
  Log2 Fc FBXO33: 0.2 log2
  Log2 Fc FGFR3: 0.0 log2
  Log2 Fc FLJ45337: −0.2 log2
  Log2 Fc GTF2F1: 0.3 log2
  Log2 Fc HNRNPCL1: −0.1 log2
  Log2 Fc HOXB2: 0.0 log2
  Log2 Fc HSPA2: −0.3 log2
  Log2 Fc ID2: 0.3 log2
  Log2 Fc IFRD1: −0.2 log2
  Log2 Fc JUP: −0.1 log2
  Log2 Fc KHDC1L: −0.1 log2
  Log2 Fc MBD3L2: 0.0 log2
  Log2 Fc MED26: 0.1 log2
  Log2 Fc MGC10997: −0.3 log2
  Log2 Fc PABPN1: −0.3 log2
  Log2 Fc PELI1: 0.1 log2
  Log2 Fc PNMA6B: −0.2 log2
  Log2 Fc PRAMEF1: 0.1 log2
  Log2 Fc PVRL3: 0.4 log2
  Log2 Fc RMRP: 0.1 log2
  Log2 Fc RNGTT: −0.6 log2
  Log2 Fc RPPH1: 0.2 log2
  Log2 Fc RRN3: 0.1 log2
  Log2 Fc SFRS2B: −0.3 log2
  Log2 Fc SFRS17A: 0.2 log2
  Log2 Fc SIAH1: −0.1 log2
  Log2 Fc SLC2A14: 0.2 log2
  Log2 Fc SLC34A2: 0.0 log2
  Log2 Fc SNIP1: −0.2 log2
  Log2 Fc SON: −0.3 log2
  Log2 Fc SPRYD5: −0.1 log2
  Log2 Fc SPTY2D1: −0.3 log2
  Log2 Fc TFIP11: 0.1 log2
  Log2 Fc THOC4: −0.2 log2
  Log2 Fc TPRX1: −0.1 log2
  Log2 Fc TRIM23: 0.6 log2
  Log2 Fc TRIM43: 0.0 log2
  Log2 Fc USP29: −0.1 log2
  Log2 Fc ZNF217: −0.3 log2
  Log2 Fc ZNF705A: −0.1 log2
  Log2 Fc ZNHIT6: 0.3 log2
  Log2 Fc ZSCAN2: −0.2 log2
  Log2 Fc ZSCAN4: 0.0 log2
